Measurements from US20200024330A1.

Experiments:
Experiment in all cases: cell-based or functional assay
[1] = target: HIV-1 Env of isolate VLGCB3 (HIV-1)
[2] = target: HIV-1 Env of isolate MGRM-G-028 (HIV-1)
[3] = target: HIV-1 Env of isolate MGRM-C-006 (HIV-1)
[4] = target: HIV-1 Env of isolate 98IN022 (HIV-1)
[5] = target: HIV-1 Env of isolate MGRM-D-021 (HIV-1)
[6] = target: HIV-1 Env of isolate MGRM-AG-011 (CRF_AG), on pseudovirus (HIV-1)
[7] = target: HIV-1 Env of isolate MGRM-D-026 (subtype D), on pseudovirus (HIV-1)
[8] = target: HIV-1 Env of isolate MGRM-AG-013 (CRF_AG), on pseudovirus (HIV-1)
[9] = target: HIV-1 Env of isolate TRJ04551.58 (HIV-1)
[10] = target: HIV-1 Env of isolate MGRM-D-008 (HIV-1)
[11] = target: HIV-1 Env of isolate MGRM-D-011 (HIV-1)
[12] = target: HIV-1 Env of isolate 92UG005 (HIV-1)
[13] = target: HIV-1 Env of isolate MGRM-F1-004 (subtype F), on pseudovirus (HIV-1)
[14] = target: HIV-1 Env of isolate MGRM-F1-012 (subtype F), on pseudovirus (HIV-1)
[15] = target: HIV-1 JR-CSF Env D185A (HIV-1 (isolate JR-CSF)) (UniProt P20871)
[16] = target: HIV-1 JR-CSF Env K168A (HIV-1 (isolate JR-CSF)) (UniProt P20871)
[17] = target: HIV-1 JR-CSF Env N156A (HIV-1 (isolate JR-CSF)) (UniProt P20871)
[18] = target: HIV-1 Env of isolate MGRM-F1-004 (subtype F) (HIV-1)
[19] = target: HIV-1 Env of isolate MG RM-D-021 (subtype D) (HIV-1)
[20] = target: HIV-1 6535.3 Env (pseudovirus) (HIV-1)
[21] = target: HIV-1 Env of isolate MGRM-F1-017 (HIV-1)
[22] = target: HIV-1 CMU02 envelope glycoprotein (Env) on pseudovirus (HIV-1)
[23] = target: HIV-1 Env of isolate MGRM-F1-023 (HIV-1)
[24] = target: HIV-1 SF162 Env (pseudovirus) (HIV-1) (UniProt P19550)
[25] = target: HIV-1 Env of isolate MG RM-D-002 (subtype D) (HIV-1)
[26] = target: HIV-1 APV_17 Env (pseudovirus) (HIV-1)
[27] = target: HIV-1 Env of isolate MGRM-C-002 (pseudovirus) (HIV-1 isolate MGRM-C-002, subtype C)
[28] = target: HIV-1 Env of isolate MGRM-C-023 (pseudovirus) (HIV-1 isolate MGRM-C-023, subtype C)
[29] = target: HIV-1 Env of isolate MG RM-D-013 (subtype D) (HIV-1)

Substance	IC50 [1]	IC50, pseudovirus neutralization [2]	IC50 [3]	IC50 [4]	IC50 [5]	IC50, single-round pseudovirus neutralization [6]	IC50, pseudovirus neutralization [7]	IC50, single-round pseudovirus neutralization [8]	IC50 [9]	IC50 [10]	IC50 [11]	IC50 [12]	IC50, pseudovirus neutralization [13]	IC50, pseudovirus neutralization [14]	Fold IC50 increase relative to wild-type [15]	Fold IC50 increase relative to wild-type [16]	Fold IC50 increase relative to wild-type [17]	IC50 (µg/mL), pseudovirus neutralization [18]	IC50 (µg/mL), pseudovirus neutralization [19]	IC50 (ug/ml), neutralizing activity [22]	also measured
5329_C19 (PGT-136) (antibody)	> 50 µg/mL	> 50 µg/mL	> 50 µg/mL	13.6 µg/mL	> 50 µg/mL	> 50 µg/mL	> 50 µg/mL	> 50 µg/mL	> 50 µg/mL	> 50 µg/mL	> 50 µg/mL	> 50 µg/mL	> 50 µg/mL	> 50 µg/mL							
5136_H01 (PGT-131) (antibody)	> 50 µg/mL	0.466 µg/mL	0.611 µg/mL	> 50 µg/mL	0.106 µg/mL	> 50 µg/mL	> 50 µg/mL	0.03 µg/mL	0.088 µg/mL	> 50 µg/mL	0.756 µg/mL	0.854 µg/mL	0.114 µg/mL	> 50 µg/mL	0.7 fold	1.7 fold	1 fold				
5345_I01 (PGT-137) (antibody)	3.36 µg/mL	> 50 µg/mL	> 50 µg/mL	0.408 µg/mL	> 50 µg/mL	> 50 µg/mL	> 50 µg/mL	> 50 µg/mL	> 50 µg/mL	> 50 µg/mL	6.3 µg/mL	> 50 µg/mL	40.3 µg/mL	> 50 µg/mL							
5343_B08 (PGT-135) (antibody)	0.142 µg/mL	> 50 µg/mL	> 50 µg/mL	0.014 µg/mL	> 50 µg/mL	> 50 µg/mL	> 50 µg/mL	> 50 µg/mL	> 50 µg/mL	> 50 µg/mL	23.5 µg/mL	> 50 µg/mL	0.211 µg/mL	0.01 µg/mL	1.3 fold	0.4 fold	0.3 fold				
5123_A06 (PGT-125) (antibody)		0.012 µg/mL													0.6 fold	0.9 fold	3.6 fold	> 50 µg/mL	0.015 µg/mL	> 10 µg/mL	IC50, pseudovirus neutralization [20]: 0.01 µg/mL; IC50 [21]: > 50 µg/mL; neutralization IC50 [22]: > 10 µg/mL; neutralization IC80 [22]: > 10 µg/mL; neutralization IC90 [22]: > 10 µg/mL; neutralization IC95 [22]: > 10 µg/mL; IC50 [23]: 0.12 µg/mL; IC50, pseudovirus neutralization [24]: 0.004 µg/mL; IC50 (µg/mL), pseudovirus neutralization [25]: 0.118 µg/mL; IC50, pseudovirus neutralization [26]: 8.06 µg/mL; IC50 (µg/mL) neutralization [27]: 0.008 µg/mL; IC50 (µg/mL) neutralization [28]: 1.31 µg/mL; IC50 (µg/mL), pseudovirus neutralization [29]: > 50 µg/mL
5141_B17 (PGT-126) (antibody)		0.012 µg/mL													1 fold	0.7 fold	1.8 fold	0.063 µg/mL	0.047 µg/mL	> 10 µg/mL	IC50, pseudovirus neutralization [20]: 0.022 µg/mL; IC50 [21]: > 50 µg/mL; IC50 [23]: 0.009 µg/mL; IC50, pseudovirus neutralization [24]: 0.003 µg/mL; IC50 (µg/mL), pseudovirus neutralization [25]: 0.039 µg/mL; IC50, pseudovirus neutralization [26]: 0.353 µg/mL; IC50 (µg/mL) neutralization [27]: 0.011 µg/mL; IC50 (µg/mL) neutralization [28]: 0.065 µg/mL; IC50 (µg/mL), pseudovirus neutralization [29]: > 50 µg/mL
5147_N06 (PGT-130) (antibody)	4.6 µg/mL	0.074 µg/mL	0.095 µg/mL	> 50 µg/mL	0.156 µg/mL	> 50 µg/mL	> 50 µg/mL	0.01 µg/mL	0.023 µg/mL	> 50 µg/mL	0.019 µg/mL	0.959 µg/mL	0.023 µg/mL	> 50 µg/mL	0.9 fold	1.2 fold	1.5 fold			> 10 µg/mL	
5114_A19 (PGT-128) (antibody)	0.012 µg/mL	0.008 µg/mL	0.014 µg/mL	0.014 µg/mL	0.014 µg/mL	3.93 µg/mL	> 50 µg/mL	0.004 µg/mL	0.019 µg/mL	0.033 µg/mL	0.007 µg/mL	0.018 µg/mL	0.027 µg/mL	0.007 µg/mL	1.5 fold	1.1 fold	0.4 fold				
4858_P08 (PGT-123) (antibody)		0.008 µg/mL													1.9 fold	0.8 fold	6.2 fold	1.78 µg/mL	11.1 µg/mL	> 10 µg/mL	IC50, pseudovirus neutralization [20]: 0.004 µg/mL; IC50 [21]: > 50 µg/mL; IC50, pseudovirus neutralization [22]: > 10 µg/mL; IC80, pseudovirus neutralization [22]: > 10 µg/mL; IC90 (pseudovirus neutralization) [22]: > 10 µg/mL; IC95, pseudovirus neutralization [22]: > 10 µg/mL; IC50 [23]: 0.053 µg/mL; IC50, pseudovirus neutralization [24]: 0.005 µg/mL; IC50 (µg/mL), pseudovirus neutralization [25]: 0.012 µg/mL; IC50, pseudovirus neutralization [26]: 0.114 µg/mL; IC50 (µg/mL) neutralization [27]: 0.01 µg/mL; IC50 (µg/mL) neutralization [28]: 0.011 µg/mL; IC50 (µg/mL), pseudovirus neutralization [29]: > 50 µg/mL
